# Laboratory results published in the supplement of paper PMC9112550, “Optimization of the antimicrobial peptide Bac7 by deep mutational scanning” (BMC Biology, 2022).
# System: Escherichia coli TOP10
# Assay: shrunken log2 fold change of peptide-encoding DNA abundance (4.5 h post-induction vs induction); higher = less antimicrobial activity (less host growth inhibition)
# Settings: time post-induction: 4.5 h; library: site-saturation at positions 5, 18, 19, 20
# 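Note: peptides expressed intracellularly from a pBAD plasmid library in pooled LB shake-flask culture, induced with 0.3% L-arabinose, DNA abundance read by NGS, three biological replicates, DESeq2 with apeglm shrinkage.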
row,Sequence,shrunken log2 fold change
1,RRIRMRPPRLPRPRPRPVYTPRP,0.194
2,RRIRSRPPRLPRPRPRPDPRPRP,0.215
3,RRIRLRPPRLPRPRPRPMVLPRP,-0.239
4,RRIRARPPRLPRPRPRPVTTPRP,0.342
5,RRIRIRPPRLPRPRPRPSSFPRP,-0.711
6,RRIRQRPPRLPRPRPRPVTKPRP,-0.0142
7,RRIRIRPPRLPRPRPRPGQVPRP,-0.0393
8,RRIRDRPPRLPRPRPRPTFMPRP,-0.07
9,RRIRQRPPRLPRPRPRPSYRPRP,-0.0524
10,RRIRIRPPRLPRPRPRPKVQPRP,-0.491
11,RRIRNRPPRLPRPRPRPLRSPRP,0.119
12,RRIRWRPPRLPRPRPRPGRCPRP,0.897
13,RRIRERPPRLPRPRPRPRENPRP,-0.362
14,RRIRLRPPRLPRPRPRPCKRPRP,-0.0962
15,RRIRQRPPRLPRPRPRPVCSPRP,-0.21
16,RRIRGRPPRLPRPRPRPIEVPRP,0.289
17,RRIRPRPPRLPRPRPRPGGDPRP,0.496
18,RRIRLRPPRLPRPRPRPVHQPRP,0.244
19,RRIRVRPPRLPRPRPRPCRRPRP,-0.299
20,RRIRKRPPRLPRPRPRPFAAPRP,0.662
21,RRIRTRPPRLPRPRPRPNCIPRP,-0.288
22,RRIRPRPPRLPRPRPRPSHIPRP,-0.505
23,RRIRCRPPRLPRPRPRPTTGPRP,-0.0721
24,RRIRWRPPRLPRPRPRPSVGPRP,0.149
25,RRIRWRPPRLPRPRPRPRPMPRP,0.427

row,Sequence,shrunken log2 fold change
1,RRIRRRPPRLPRPRPRPKEVPRP,0.195
2,RRIRGRPPRLPRPRPRPRIRPRP,0.211
3,RRIRMRPPRLPRPRPRPWSNPRP,-0.254
4,RRIRKRPPRLPRPRPRPRMQPRP,0.622
5,RRIRPRPPRLPRPRPRPQYYPRP,-0.422
6,RRIRGRPPRLPRPRPRPVYVPRP,0.0272
7,RRIRRRPPRLPRPRPRPYQGPRP,-0.00892
8,RRIRLRPPRLPRPRPRPPLKPRP,0.253
9,RRIRIRPPRLPRPRPRPWHWPRP,-0.0771
10,RRIRVRPPRLPRPRPRPVTWPRP,-0.14
11,RRIRARPPRLPRPRPRPFMCPRP,0.618
12,RRIRPRPPRLPRPRPRPWFAPRP,-0.116
13,RRIRPRPPRLPRPRPRPVQSPRP,0.131
14,RRIRKRPPRLPRPRPRPAMRPRP,1.33
15,RRIRFRPPRLPRPRPRPRPMPRP,0.856
16,RRIRGRPPRLPRPRPRPQLYPRP,0.415
17,RRIRHRPPRLPRPRPRPNKHPRP,-0.627
18,RRIRDRPPRLPRPRPRPCGNPRP,0.104
19,RRIRFRPPRLPRPRPRPNKCPRP,-0.273
20,RRIRCRPPRLPRPRPRPGRNPRP,-0.0027
21,RRIRHRPPRLPRPRPRPVRWPRP,0.98
22,RRIRKRPPRLPRPRPRPELHPRP,0.0814
23,RRIRCRPPRLPRPRPRPTWNPRP,0.128
24,RRIRPRPPRLPRPRPRPHKCPRP,-0.19
25,RRIRRRPPRLPRPRPRPGSTPRP,0.1

row,Sequence,shrunken log2 fold change
1,RRIRKRPPRLPRPRPRPDGCPRP,0.14
2,RRIRRRPPRLPRPRPRPQHIPRP,-0.338
3,RRIRARPPRLPRPRPRPSVEPRP,0.49
4,RRIRLRPPRLPRPRPRPTGMPRP,0.056
5,RRIRHRPPRLPRPRPRPPIYPRP,-0.204
6,RRIRVRPPRLPRPRPRPNIDPRP,-0.258
7,RRIRMRPPRLPRPRPRPEMAPRP,3.69
8,RRIRFRPPRLPRPRPRPPINPRP,-0.406
9,RRIRNRPPRLPRPRPRPQIKPRP,-0.479
10,RRIRNRPPRLPRPRPRPNIVPRP,-0.115
11,RRIRPRPPRLPRPRPRPTPDPRP,0.356
12,RRIRVRPPRLPRPRPRPATSPRP,-0.0495
13,RRIRPRPPRLPRPRPRPGCCPRP,0.343
14,RRIRQRPPRLPRPRPRPCKHPRP,-1.29
15,RRIRNRPPRLPRPRPRPQTNPRP,-0.276
16,RRIRCRPPRLPRPRPRPLRQPRP,0.713
17,RRIRFRPPRLPRPRPRPEINPRP,-0.00788
18,RRIRVRPPRLPRPRPRPKVQPRP,3.74
19,RRIRLRPPRLPRPRPRPCRHPRP,-0.601
20,RRIRPRPPRLPRPRPRPYEVPRP,-0.125
21,RRIRWRPPRLPRPRPRPCYCPRP,-0.247
22,RRIRMRPPRLPRPRPRPDQLPRP,0.391
23,RRIRCRPPRLPRPRPRPGFFPRP,0.0565
24,RRIRGRPPRLPRPRPRPLKMPRP,0.27
25,RRIRQRPPRLPRPRPRPISTPRP,-0.503
